Assay results as given in the DeepSol protein solubility set.

Experiment: soluble on expression in E. coli; label from the status in PepcDB or PDB records

Soluble on expression in E. coli, not soluble:
MGSDKIHHHHHHMDYTRYVVQPGDSIYKIANAYKIEMSDIINLNHLKHPDRIYPGQILLLPTYEFKDTLPGEIPEPNFTYAMWLFDVYAGKDSELSAVTTYLYQAVVLDRPEFDELLRPIAYDELRHLEQLAWCIRFLGVDPRYGSFSKGRWFDWRSRYLNYSTELCVILDHNMKDEAAAVKHYTDLAQKIPIPEIQTILLQLAADEERHYQCLAQAKTRFCGCGSSQTQHIKESSNGEEL
MGSDKIHHHHHHMEENIWWRGKDYIEEDEDIKKWNSAKFKWIPKEINKISLQPFSLNFIVGPRQVGKTTLIKLLIKKLLESNHNPLSIFYCSCDLVSDYEELLKRTRDYLKIRKQEGIKSSFIFLDEVTFVKEWYRAVKHLIDTGELTSDVVTVSGSSSLTILKQKESFPGRRGNGTDVILYPLSFSGYINVINPKIEVRPGWYSEIEELFESYLKVGGLPPSINGLSPLKTYTEWIIYEINRVGRDEMLAKQILSAVLSTTPSKVSYNSIAKEIGVNHRTVAEYIKLFNDMFLTLTLHFIDVNTGYYNYRKQIKIHFVDPLFYDVMSTWTGVKRPDDPIIVEGIVASHLSRIYSIGYTEVGKEEIDVVTLPEVIGYEVKYRERTKQVKVIAGKMKKVITLSKHGENDTFPVHLFLAELNI
MGSDKIHHHHHHMEFDQAKKIVVATIIDQQGLSDRLVGCKAIITSTGRLSYSIPLAWVRERLEVLIRESLYRGSFEVISLANPNDTRQKATLMIDPYLPPQELIILGGGHIAQPLAKIGKLLGYQVAVLDDRPEFVSKDRFPEADKTICCSFDTVENSFDLGPQSNVVIVTRGHQHDLLCLRQMLKYPLAYLGMIGSRRKVAIIRERLLEEGLAVKKLNSVYMPIGLDIGAQTPAEIAVSITAELIKVRRGGKAASIKNIDKKNNDNEAGVFNLGELPSTIDQEILQLTLQAAINHVPAALATVVSTKGSTPRKAGAHMLVWADGRSLGTVGGGQGEAKVRAEAFKIINTSQPILYRISMDAANAAMEGMICGGSMEVFIEPVNGFAQVSGGGGIL
MGSDKIHHHHHHMEFWESSFIEKQTMWGFEPTESAILAKDFFLEKNVKDILVPGIGYGRNAKVFIENSINVTGIEISKTAIDLARENGLEDVSIYHGSVNEMPFDNKLYDGIFSHALLHLLNDQEREGFIENCYNQLKPGAYMVFTTVSKKAPMYGKGKQLDKDYYEIMEGVKMFFYDSESIKKDFNQYGLVQVSEIDEPNKNMANKPSINFLTIKCKKEL
MGSDKIHHHHHHMEHIQSSIEKILNRPDVAESVRAIHQRVLSHPGVIMFLRTHPEIDQRMIERGMLKLNEYAEQMNGNQIIEKKAVIEGYQPVLHLEKGQIMVAYEKTQALRDRENERALEKKFKSLFLPDEVRDANFSDFDLTTTDRKLALRAASQFLNTVRSKQQVKGLYLHGSFGVGKTYLLAAIGNALKKERVATILVHAPGFVSEAKRRIRSDSFDTFLESFQTVPVLLIDDIGAESISPWVRDELFGIILQYRMMHRLPTLFSSNLSYDELELHFGITNDQGDKLKAMRLMERIRTTTNPVEFLGENRRRY
MGSDKIHHHHHHMEISMRFTDINQERERILSCPVPGYFPRKDSFLELERLIGLREVKRTLAEVAAFTLIQNRRSELRLKSDPTALHMVFKGNPGTGKTTVARILGRVFNEIGILSKGHLLEVERADLVGEYIGHTAQKTREILKRAMGGIVFIDEAYSLAQGGERDFGKEAISTLVKAMEDYRDNLVVILAGYSQEIDRFLKSNPGLRSRFPIHIDFCDYNAEELFQIALQIYQEREYELTSRCRWKLKQQLNEFVKNRHSHSGNARYVRNLAEKSIRLQALRIVDKDAPVRRDLVTIEEADLPDPRSIQA
MGSDKIHHHHHHMEKIIEINDSIIQISDLNDRIYIMKLGKDVGELIKHVDSVCNEKKLSKVFAKVSGNKKELFEKNGYICEGKLENYYSNDDAYFMSKFFEESRKISKFSKEAEDVLNYVKTVGVNPHTKIDEKFHLKIANETDAEKLSKHYSKVFKTYPFPIDDPNYILKTMQTNVKYFIIEDNGKIVAASSCEMDIKNKCVEMTDFAVLEEYQKLGLSKYLLYIMEKIMKDNGYRVFYTIARSISYGMNITFKKMGYMYSGTAVNNTNICGNFEDMNFWYKLSE
MGSDKIHHHHHHMEKILLVDDEQFVLDGLKRQLRRKYAIHTADGGEKGLQLIQSDGPFAVVVSDMRMPEMNGIEFLTQVRRVAPDSIRIMLTGYADQKTAINAINEGAIFRFLTKPCSLENLTVALDAALDQYRLITAEKELLEKTLKGSIKVLVDILSLSAPAAFSQATRLRKYAAQIVARLEFPDSWQYEIAALLSSIGFVNIPPETITKHLIGEKLTGREQEMIDAVPETAGMLLANIPRLSAVALMINRQNTPCSEPTAFKNGDFHEAVRIGANLLKVLTDFDILLIRNYEPEEAIRIMSERIGLYDRTLLNMLAILDLPRRDQGVRNIRIDDLREGMIIDADIRNTHGILVVPKGYEVNESTCQRLKNFLIRQTGAETVRVLMPVYAEEESQ
MGSDKIHHHHHHMEKKVICQDIFWSCDGTSFVSVHNDFGIRQYLVPEESNTDKLNRNLLLPFTRFFRNQSIVSCAIDPFYTLYNENSDRLAGDRIVVGGKNFPLQLYSLMDGQCILSYDTMNKINGEYETVYSVKIDVESRVYTGSCRNKVAIYDKSRRDAVWMNQSTKKASKGRQSIISCFEEQPMGGQALSRGSLLCGSYANEMFQVDCRHQRLERLNYTRTVAGGIVQILTSDNGRYVYVVRRNSDAISIYDRRNLQHELNVLRLPFRIHHNSAKLKAYIDTAYGLSMGTPQGTILNWGRDLVEFGGVPSHNSVEDPLITSIPPESEWRTNLDSTIPATVVKNCPGDPELFALSHGGTISLCRFGG
MGSDKIHHHHHHMEKSKYKRDWSKYDENVITRYKLMFPFYVFEHWWDLLAEENRNARTKYKAPKEFNEFLAFLHIFLPYRAIEGVLRALEQLKIIPTSLDYSTIWERVRNMNITFPETSDELEVIADATGISTNTGGQYIVAKWGKTRDSKFLKIEIVMDNNEFNVINAEVTSNEVESAVKTVKDLQDKGKKVKKFYGDKAYDANEVYKTGVEVVVPPKKNASTKRHLARRKAVREFRKLGYDRWKEEKGYGVRWRVESLFSAVKRTFGESVRQVLLGK
MGSDKIHHHHHHMEKTVQLEHMNTRVFVEGAYDTALIPLGSCESHGDHLPFAMDALTAHKLALGVAERMEKVFVLPPTFFGFSQHYWHKPMSISLSQDTNIRVIADILDSLAHWKIRNVLIINGHDGNISAIDVAARAARLRHPDMKIGSLDAWWVTAGNLLPKDTFEVWNGLGHGGEGETSIGLACFPELVDMAHARGMIPEVDENVKELWDFSELTDYGATGAPEKATREKGQAMYDVLVDYLVAYLTKRRDTNWAYNPK
MGSDKIHHHHHHMELFRLHYFLELCKVKQFTKAAENLAISQAALSKQIKILEATLGAELFNRQGQTTTLTPAGLILEKYCWRITNELVSIEEELKEINHSSNHIYVATYLCDLEYKLNDLLMTTLTDRSSNLQVHTIITENILQSLETMDADFGISFADLPLPEHIGKIDLFTANYQFILRNDHPALAKATTEEILKELTMYPFVRLNTEFSEQNKLTNWLDTTFSNFSPEKVIQVDTLSLITHLVSHSDSFAIVPEYTNIQLLDNSIHTLTYQELPKRNMAVYYLKERYMSRQLQQLLAECQKQFQ
MGSDKIHHHHHHMELNEFLDKAYAVLRRLDAVLPPEPGHTDWNALAFRWQSAGKKGFLEHLPDPHTFPLARLAGVGRQTELLVRNTEQFIAGRPANNVLMSGARGTGKSSLVKALLHEYADKGLRLIEVDKSDLIGLPYLLTLLKERPEKFIVFCDDLSFESGDETYKALKTALDGGLSQRCANVLVYATSNRRHLMPEYFDENAGTTGMRGEIHQKEAVEEKISLSDRFGLWLSFYPFDQNDYLAAVQNWLEDFGVPYDETAQMAALQWAQTRGSRSGRSAWQFACDWAGRLPKQRAL
MGSDKIHHHHHHMELQLMQWQVGDLPFFYRCQPQPSNAPYGLPDSLPFCLEFDSALGLIRQSPNTQVEAALERCYQHGSTISGMMDSGGIGQQYARDFLDFIAHHETDLTGKRVLEIGCGTGYLLSLLKQKGADVLGIEPGAQGQGGQQRHGVPIIDGFFPHPKAEGKFDLIVAYAVLEHIGEPQGFLEKIADSLAPDGVAYIAVPDCAPYIENGDISCLLHEHWSYFDASSLQRLLEVSGFAAAVQPAGFGGSIYARAVRVSHKTKPVNDEIDLAGNGFERFRSLALGAGQRLERFLAGPGQAGIYVPGRMINLLASLDSVDLAQVRLFDDNEALTGLYFPGMPNPIEDFSGLVERPPARLLIATKSFHFQIADRIEHASVEVPLLAWSDLFLVAAPK
MGSDKIHHHHHHMELRDLQIFKCVAHHKSITGAAKELNYVQSNVTARIKQLENELKTPLFNRHKKGVSLSPEGRKMIEYVNKILKDVEELEQVFLDTEIPSGILKIGTVETVRILPTIIASYYKKYPNVDLSLQAGLTEELIKKVMNHELDGAFISGPLKHSILEQYDVYTEKLTLVTSNKTFNIEDFSTTPILVFNQGCGYRSRLEQWLKDEGVLPNRMMEFNILETILNSVALGLGITVVPESAVMHLAVQGKVYCHPLPEKDSCISTIFIRHKDAYLTNSMRSLLKTIVEHKNMSMA
MGSDKIHHHHHHMELRGIWLTNVDSKILHSRDKIAEAMNFLVDTGFNVIFPVVWNKAFTLYPSQLMETTFGQEIDPLYKGRDPLAEVIIEAQRVGLKVIPWFEYGFVSSYKQNGGLILSKKPEWIARERKGNLLVKNGFEWMNALDEEVQNFLIDLVLEVVRNYDIDGIQGDDRMPAFPSEGGYDAKTVGRYRQQFSCHPPQNNKDHKWLQWRANILTDFLARLYGKVKAVKPNILVSMAPSFYKWGFNEYLQDYPTWINREVVDIVHPQLYRRDFSSYKSLVEQLVKQQFIATHLNKIFPGILIKIGSYRISMDYLLEAIAYNRSVGINGEVLFFYEGLRENNDVLAKALRKYVYN
MGSDKIHHHHHHMELRHLRHFIVLARLKSFSKAANELHLAQPSLSRSIQKMEERLGASLLARDEKHFALTEYGRLVLAQGELIVSQLEYLESEIKTKQGLEKAKLVIGASPIPSNSIIGPAVGRFIRDNPDISLELKVESWSRLYKLLLKGELDMFIAETNATLLDQRDNVITQCLPQSQAIFCCRPHHPLTRLKTVYLPSLRDYPVGMPSAMPQLLRQRFEDLFEEDRHDFVGLVKYAQFQPIKSAIKECDMVVITPDISVREELASGELVALDVVGVPNIKASFSVVSMKNRRLSHSAEQFVDSLLTHSSAKAVGF
MGSDKIHHHHHHMEMMRDAVQFEPADSRVTRPSFWSSLPERWTSDVEETLVCCHVRQETHDVKSFFFHSPDGRAFVFEPGQFITLELEIEGETINRCYTISSSPARPHTLSITVKRVPGGKVSNWLHDNVRPGTPIRVLGPAGEFTCARHPARKYLFLSAGSGITPLMSMSRAHHDLGEDRDIVFVHSARTPDDIIFSRELDLIASNHANFRTSFVCESVGARTSWPGVTGFLSLPLLKLIAPDFMEREIFTCGPAPYMKAVRDLLDEGGFDRRRYHEESFSFETLTADGPADAPAPDTGVASAPHGIADMAAFSVSFAKSRREIVCSSGQHVLEAARQSGVRLPASCTQGMCGTCKVKLVSGQVEMKHNGGIRQREIDQGMVLLCCSKPLSDLVIDK
MGSDKIHHHHHHMEMNEVIIDENLKESIDLWTFMLPIISHRTTIRKNIHGYMPLHWHDELQFVVIIQGEARFQVNEEAIIVQEGDGLFINSGCLHMVEDGNGSNCVYICLNVPAQSIISRELYTAYVAPYVQATNLPYVLIPSSEMWGQNIIEATLNIHQCLEEQPPYYEMDITTKLTVIWKSLITNGFPLEYDQSAMIKNQRMKAMLQWIHLHYGENIRLDDIAKAGQLSRSECCRYFKRTLKMTPLQYVTDYRIQKSVTLLQQPESNVTDVAYQVGFNSTSYFIDQFRKAMNMTPLRYKKSKLERLID
